According to patent publication US20210277090A1:

Biological target: trypsin
Test: cell-based or functional assay

specific activity of the sample (units of trypsin inhibition): 5000 U/mg
Substance: recombinant ulinastatin polypeptide (T17); mature human ulinastatin with S10A mutation, N-linked glycan at N45 and O-linked glycan at T17 (from UniProt P02760 206-352)
